From US20150344570A1 (published 2015)

T1: human FcγRIIb extracellular domain with C-terminal His tag (human, UniProt P31994 43-217)
T1 construct: extracellular domain; also called FcgRIIb; 2b; not shown: His tag attached to the C terminus
T1 sequence (looked up): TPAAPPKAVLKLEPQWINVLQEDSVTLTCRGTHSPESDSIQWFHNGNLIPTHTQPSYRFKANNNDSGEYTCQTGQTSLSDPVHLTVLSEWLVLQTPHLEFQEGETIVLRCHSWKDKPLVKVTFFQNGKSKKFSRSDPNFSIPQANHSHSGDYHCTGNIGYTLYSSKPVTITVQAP


biological target: T1, human FcγRIIb extracellular domain with …; assay: SPR (Biacore T100), antibody captured on antigen peptide chip, FcγRIIb as analyte; relative binding
Protocol: Analysis of interaction between objective antibody and the FcγR was carried out using Biacore T100 (GE Healthcare). HBS-EP+ (GE Healthcare) was used as the running buffer, and the measurement temperature was set to 25° C. Chips produced by immobilizing the antigen peptide by the amine coupling method to a Series S Sencor Chip CM5 (GE Healthcare), or alternatively, chips produced by allowing preliminarily biotinylated antigen peptides to interact with and immobilize onto a Series S Sensor Chip SA (certified) (GE Healthcare) were used. Antibodies of interest were captured onto an antigen peptide-immobilized chip, and allowed to interact to each FcγR diluted with running buffer. To regenerate and repeatedly use the chip, the antibodies captured on the chip were washed off by reacting 10 mM glycine-HCl, pH 1.5.

Ho/Con_2b | Binder
106 % of control GpH7-B3/GpL16-k0 (=100) | GpH7-B3 variant S267_14T/GpL16-k0 (Ho Ab) (antibody, human IgG1, kappa, Anti-glypican-3 IgG1; mutation in both H chains; also called S267T homodimerized antibody) heavy: not shown light: DIVMTQSPLSLPVTPGEPASISCQASESLVHSNRNTYLHWYLQKPGQSPQLLIYKVSNRFSGVPDRFSGSGSGTDFTLKISRVEAEDVGVYYCSQNTHVPPTFGQGTKVEIERTVAAPSVFIFPPSDEQLKSGTASVVCLLNNFYPREAKVQWKVDNALQSGNSQESVTEQDSKDSTYSLSSTLTLSKADYEKHKVYACEVTHQGLSSPVTKSFNRGEC
146 % of control GpH7-B3/GpL16-k0 (=100) | GpH7-B3 variant L328_14T/GpL16-k0 (Ho Ab) (antibody, human IgG1, kappa, Anti-glypican-3 IgG1; mutation in both H chains; also called L328T homodimerized antibody) heavy: not shown light: DIVMTQSPLSLPVTPGEPASISCQASESLVHSNRNTYLHWYLQKPGQSPQLLIYKVSNRFSGVPDRFSGSGSGTDFTLKISRVEAEDVGVYYCSQNTHVPPTFGQGTKVEIERTVAAPSVFIFPPSDEQLKSGTASVVCLLNNFYPREAKVQWKVDNALQSGNSQESVTEQDSKDSTYSLSSTLTLSKADYEKHKVYACEVTHQGLSSPVTKSFNRGEC
109 % of control GpH7-B3/GpL16-k0 (=100) | GpH7-B3 variant S267_08L/GpL16-k0 (Ho Ab) (antibody, human IgG1, kappa, Anti-glypican-3 IgG1; mutation in both H chains; also called S267L homodimerized antibody) heavy: not shown light: DIVMTQSPLSLPVTPGEPASISCQASESLVHSNRNTYLHWYLQKPGQSPQLLIYKVSNRFSGVPDRFSGSGSGTDFTLKISRVEAEDVGVYYCSQNTHVPPTFGQGTKVEIERTVAAPSVFIFPPSDEQLKSGTASVVCLLNNFYPREAKVQWKVDNALQSGNSQESVTEQDSKDSTYSLSSTLTLSKADYEKHKVYACEVTHQGLSSPVTKSFNRGEC
142 % of control GpH7-B3/GpL16-k0 (=100) | GpH7-B3 variant S239_08L/GpL16-k0 (Ho Ab) (antibody, human IgG1, kappa, Anti-glypican-3 IgG1; mutation in both H chains; also called S239L homodimerized antibody) heavy: not shown light: DIVMTQSPLSLPVTPGEPASISCQASESLVHSNRNTYLHWYLQKPGQSPQLLIYKVSNRFSGVPDRFSGSGSGTDFTLKISRVEAEDVGVYYCSQNTHVPPTFGQGTKVEIERTVAAPSVFIFPPSDEQLKSGTASVVCLLNNFYPREAKVQWKVDNALQSGNSQESVTEQDSKDSTYSLSSTLTLSKADYEKHKVYACEVTHQGLSSPVTKSFNRGEC
111 % of control GpH7-B3/GpL16-k0 (=100) | GpH7-B3 variant L328_19Q/GpL16-k0 (Ho Ab) (antibody, human IgG1, kappa, Anti-glypican-3 IgG1; mutation in both H chains; also called L328Q homodimerized antibody) heavy: not shown light: DIVMTQSPLSLPVTPGEPASISCQASESLVHSNRNTYLHWYLQKPGQSPQLLIYKVSNRFSGVPDRFSGSGSGTDFTLKISRVEAEDVGVYYCSQNTHVPPTFGQGTKVEIERTVAAPSVFIFPPSDEQLKSGTASVVCLLNNFYPREAKVQWKVDNALQSGNSQESVTEQDSKDSTYSLSSTLTLSKADYEKHKVYACEVTHQGLSSPVTKSFNRGEC
115 % of control GpH7-B3/GpL16-k0 (=100) | GpH7-B3 variant S298_08L/GpL16-k0 (Ho Ab) (antibody, human IgG1, kappa, Anti-glypican-3 IgG1; mutation in both H chains; also called S298L homodimerized antibody) heavy: not shown light: DIVMTQSPLSLPVTPGEPASISCQASESLVHSNRNTYLHWYLQKPGQSPQLLIYKVSNRFSGVPDRFSGSGSGTDFTLKISRVEAEDVGVYYCSQNTHVPPTFGQGTKVEIERTVAAPSVFIFPPSDEQLKSGTASVVCLLNNFYPREAKVQWKVDNALQSGNSQESVTEQDSKDSTYSLSSTLTLSKADYEKHKVYACEVTHQGLSSPVTKSFNRGEC
125 % of control GpH7-B3/GpL16-k0 (=100) | GpH7-B3 variant S239_18N/GpL16-k0 (Ho Ab) (antibody, human IgG1, kappa, Anti-glypican-3 IgG1; mutation in both H chains; also called S239N homodimerized antibody) heavy: not shown light: DIVMTQSPLSLPVTPGEPASISCQASESLVHSNRNTYLHWYLQKPGQSPQLLIYKVSNRFSGVPDRFSGSGSGTDFTLKISRVEAEDVGVYYCSQNTHVPPTFGQGTKVEIERTVAAPSVFIFPPSDEQLKSGTASVVCLLNNFYPREAKVQWKVDNALQSGNSQESVTEQDSKDSTYSLSSTLTLSKADYEKHKVYACEVTHQGLSSPVTKSFNRGEC
327 % of control GpH7-B3/GpL16-k0 (=100) | GpH7-B3 variant S267_09D/GpL16-k0 (Ho Ab) (antibody, human IgG1, kappa, Anti-glypican-3 IgG1; mutation in both H chains; also called S267D homodimerized antibody) heavy: not shown light: DIVMTQSPLSLPVTPGEPASISCQASESLVHSNRNTYLHWYLQKPGQSPQLLIYKVSNRFSGVPDRFSGSGSGTDFTLKISRVEAEDVGVYYCSQNTHVPPTFGQGTKVEIERTVAAPSVFIFPPSDEQLKSGTASVVCLLNNFYPREAKVQWKVDNALQSGNSQESVTEQDSKDSTYSLSSTLTLSKADYEKHKVYACEVTHQGLSSPVTKSFNRGEC
174 % of control GpH7-B3/GpL16-k0 (=100) | GpH7-B3 variant S239_01G/GpL16-k0 (Ho Ab) (antibody, human IgG1, kappa, Anti-glypican-3 IgG1; mutation in both H chains; also called S239G homodimerized antibody) heavy: not shown light: DIVMTQSPLSLPVTPGEPASISCQASESLVHSNRNTYLHWYLQKPGQSPQLLIYKVSNRFSGVPDRFSGSGSGTDFTLKISRVEAEDVGVYYCSQNTHVPPTFGQGTKVEIERTVAAPSVFIFPPSDEQLKSGTASVVCLLNNFYPREAKVQWKVDNALQSGNSQESVTEQDSKDSTYSLSSTLTLSKADYEKHKVYACEVTHQGLSSPVTKSFNRGEC
108 % of control GpH7-B3/GpL16-k0 (=100) | GpH7-B3 variant S239_07I/GpL16-k0 (Ho Ab) (antibody, human IgG1, kappa, Anti-glypican-3 IgG1; mutation in both H chains; also called S239I homodimerized antibody) heavy: not shown light: DIVMTQSPLSLPVTPGEPASISCQASESLVHSNRNTYLHWYLQKPGQSPQLLIYKVSNRFSGVPDRFSGSGSGTDFTLKISRVEAEDVGVYYCSQNTHVPPTFGQGTKVEIERTVAAPSVFIFPPSDEQLKSGTASVVCLLNNFYPREAKVQWKVDNALQSGNSQESVTEQDSKDSTYSLSSTLTLSKADYEKHKVYACEVTHQGLSSPVTKSFNRGEC
206 % of control GpH7-B3/GpL16-k0 (=100) | GpH7-B3 variant S267_03V/GpL16-k0 (Ho Ab) (antibody, human IgG1, kappa, Anti-glypican-3 IgG1; mutation in both H chains; also called S267V homodimerized antibody) heavy: not shown light: DIVMTQSPLSLPVTPGEPASISCQASESLVHSNRNTYLHWYLQKPGQSPQLLIYKVSNRFSGVPDRFSGSGSGTDFTLKISRVEAEDVGVYYCSQNTHVPPTFGQGTKVEIERTVAAPSVFIFPPSDEQLKSGTASVVCLLNNFYPREAKVQWKVDNALQSGNSQESVTEQDSKDSTYSLSSTLTLSKADYEKHKVYACEVTHQGLSSPVTKSFNRGEC
